Test results taken from the nanobody polyreactivity screen of Harvey et al. (2022).

Assay: yeast display, Sf9 membrane polyspecificity reagent, FACS + sequencing; frameworks hold sequencing errors
Method in brief: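 Galactose-induced (36–48 hours) yeast carrying a synthetic nanobody display library were exposed to 10% biotinylated, detergent-solubilized Sf9 membrane reagent at 4 °C for 1 hour. FACS followed streptavidin microbead enrichment, using low and high (top ~1%) gates for expression (anti-HA) and reagent binding (streptavidin). Colony PCR, MiSeq 2 × 250 sequencing and CDR-length filtering followed. Labels for polyreactivity reflect the gate of origin.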

Sequence	polyreactivity (PSR sort gate)
QVQLVESGGGLVQAGGSLRLSCPDSAFTFSLYGMGWYRQAPGKEREMVAAIRSGGSTNYADSVKGRFTISRDNAKNTVYLQMNSVKPEDTAVYVCATDIHSVHNNRDKHDYDYWGQGTQVTVSS	low polyreactivity
QVQHVESGGGLVQAGGSLRLSCAASGFIFSKYAMGWYRPAPGKERELVAAITRSGGRTYYADSVKGRFTISRDNAKNTVYLQMNSLKPEDTAVYYCAASWLYFGRDYWGQGTQVTVSS	high polyreactivity
QVQLVESGGGLVQAGGSLRLSCAASGRIFYPYAMGWYRQAPGKERELVAAIRRSGVDTYYADSVKGRFTISRDNAKNTVYLQMNSLIPEDTAVYSCAADPYWFFPHYDSWGQGTQVTVSS	low polyreactivity
QVQLVDSGGGLVQAGGSLRLSCAASGFKFGTYAMGWYRQAPGKERELVAGISRRSGSTIYADSVKGRFTISRDNAKNTVYLQMNSLKPEDTAVYYCNVDRPDATWSWWEYGYWGQGTQVTVSS	high polyreactivity
QVQLVESGGGLVQAGGSLRLSCADSGIIFTQYAMGWYRQAPGKERELVAGISKSGGSTYYADSVKGRFTISRDNAKNTVYLQMNSLKPEDTAVYYCAAPVPKTDKLLRMYYWGQGTQVTVSS	high polyreactivity
QVQLVESGGGLVQAGGSLRLTCAASGSTSYSNAMGWYRQAPGKERELVAAINRRGDSTYYADSVKGRFTISRDNAKNTVYLQMNSLKPEDTAVYYCNKVVRVYLGRFQYYSWGQGTQVTVSS	high polyreactivity
KVQLVESGGGLVQAGGSLRLSCAASGSIFGDNAMGWYRQAPGKERELVAAINYNGGRTYYADSVKGRFTISRDNAKNTVYLQMNSLKPEDTAVYYCAKDNYQAPVQQYPFDYWGQGSQVTVSS	low polyreactivity
QVQLVESGGGLVQAGGSLRLSCAASGSIFYRNAMGWYRQAPGKERELVAAITSSGGSTYYADSVKGRFTISRDNAKNTVYLQMNSLKPEDTAVYYCATRGWSKQLYGGYTQYYYWGQGTQVTVSS	high polyreactivity
QVQLVESGGGLVQAGGSLRLSCAASGLTFSLYAMGWYRQAPGKERELVAAISSSGSTYYADSVKGRFTISRDNAKNTVYLQMNILKPEDTAVYYFAADAPWWIDPIAGNYWGQGTQVTVSS	high polyreactivity
QVQLVESGGGLVQAGGSLRLSCAASGSTFYAYDMGWYRQAPGKERELVAAISSGGSTYYADSVKGRFTISRDNAKNTVYLQMNSLKPEDTAVYYCAPEYTYELEASEPSDYDYWGQGTQVTVSS	low polyreactivity
QVQLVESGGGLVQAGGSLRLSCAASGSISLHYAMGWYRQAPGKERELVAAISKSGGSTYYADSVKGRFTISRDNAKNTVYLQMNSLKPEDTAVYYCAADTYRSFGYNYWGQGTQVTVSS	high polyreactivity
QVQLVESGGGLDQAGGSLRLSCAASGSTIHRNAMGWYRQAPGKERELVAAITSGGSTNYADSVKGRFTISRDNAKNTVYLQMNSLKPEDTAVYYCDKDYRHYNRGWYDYWGQGTQVTVSS	low polyreactivity
QVQLVESGGGLVQAGGSLRLSCAASGRIFGPYAMGWYRQAPGKERELVAAISQRGGTTYYADSVKGRFTISRDNAKNTVYLQMNSLKPEDTAVYYCAAKTYGWGQGTQVTVSS	high polyreactivity
QVQVVESGGGLVQAGGSLRLICAASGSTFYSYAMGWYRQAPGKERELVAPISSSGVRTYYADSVKGRFTISRDNAKNTVFLQMISLKPEDTAVYYCNTYLKRYVGRGGPSYYWGQGTQVTVSS	high polyreactivity
QVQLVESGGGLVQAGGSLRLSCAASGSTFIINAMGWYRQAPGKERELVAAITIGDITNYADSVKGRFTISRDNAKNTVYLQMNSLKPEDTAVYYCNKDALLFWHRDYVLDTYEYWGQGTQVTVSS	low polyreactivity
QVQLVESGGGLVQAGGSLRLSCAASGSTLVFYAMGWYRQAPGKERELVAAIDSDGGTYYADSVKGRFTISRDNAKNTVYLQMNSLKPEDTAVYYCNAAGALIFGEGYYVEYDYDYWGQGTQVTVSS	low polyreactivity

Sequence	polyreactivity (PSR sort gate)
QVQLVESGGGLVQAGGSLRLSCGASGRFFDDYAVGWYRQAPGKEREFVAAISRSGASTYYADSVKGRFTISRDNAKNTVYLQMNSLKPEDTAVYYCAARAGANYRMDYWGQGTQVTVSS	high polyreactivity
QVQLVESGGGLVQAGGSLRLSCAASGSIFVSEYVMGLSRPAPGKERELVARIRWSSGSTYYADSVKGRFTISRDNAKNTVYLQIYSLKPEDTAVYYCNKDYYYVIGWTYHRSYHYDYWGQGTQVTVSS	low polyreactivity
QVQLVESAAGLVQAGGSLRLSCAASGSIFSYYAMGWSRQAPGKERELVAAITGRGGNTYYADSVKGRFTISRDNAKNTVYLQMNSLKPEDTAVDYCAKDYFGWYDVETPYDYWGQGTQVTVSS	low polyreactivity
QVQLVESGGGLVQAGGSLRLSCAASGSTFNAYAMGWYRQAPGKERELVAVISSSGGRTYYADSVKGSFTISRDNAKNTVYLQMNSLKPEDTAVYYCNADVKYRYNHWGQGTQVTLSS	high polyreactivity
QVQLVESGAGLVQAGGSLRLSCAASGSTFPFYDMGWYRQAPGKEREFVAVISSSGGSTYYADSVKGRFTISRDNAKNTVYLQMNSLKPEDTAVYYCARRYPGRWYDYWGQGTQVTVSS	high polyreactivity
QVQLVESGGGLVQSGGSLRLTCAASGFTFYDYDMGWYRQAPGKERELVATITWSVGRTYYADSVKGRFTISRDTAKNTVYLQMNSLKPEDTAVYYCAADEPDRDYGYWGQGTQVTVSS	low polyreactivity
QVQLVESGGGLVQAGGSLRLSCAASGFTFAYYAMGWYRQAPGKERELVAAINWSGTRTSYADSVKGRFTISRDNAKNTVYLQMNSLKPEDSAVYYCAADSSLRYDYWGQGTQVTVSS	high polyreactivity
QVQLVESGGGLVQAGGSLRLSCAASGRIFVYYAMGWYRQAPGKERELVAAMNAGGSTNYADSVKGRFTISRDNAKNNVYLQMYSLKPEDTAVYYCAAVRRSRYSYRGYYWGQGTQVTVSS	high polyreactivity
QVQLVESGGGLVQAGGSHRLSCAASGSTFLINAMGWYRQAPGKERELVAAISRDGSTNYADSVKGRFTISRDNAKNTVYLQMNSLKPDDTAVYYCAADEQAYYVRRFDYWGEGTQVTVSS	low polyreactivity
QVQLVESGGGLVQAGGSLRLSCAASGSTFYPNAMGWYRQAPGKERELVAAISWSGGRTYYADSVKGRFTISRDNAKNTVYLQMNSLKPEDTAVYYCNRYHRTSWRAKYDYWGQGTQVTVSS	high polyreactivity
QVQLVESGGGLVQAGGSLRLSCAASGITFNFYAMGWYRQAPGKERELVAAITQSGGSTYYADSVKGRFTISRDNAKNTVYLQMNSLKPEDTAVYYCAAARTGHMYYWGQGTQVTVSS	high polyreactivity
QVQLVESGGGLVQAGGSLRLSCAASGFTFGPYAMGWYRQAPGKERELVAAIRSGGSTNYADSVKGRFTISRDNAKNTVYLQMNSLKPEDTAVYYCAAGYRRGWVTMGYWGQGTQVTVSS	high polyreactivity
QVQLVESGGGLVHAGGSLRLSCAASGSIFWYYTMGSYRQAPGKERELVATIRWRSGSTYYADSVKGRYTISRDNAKNTVYLQMNTQKPEDTAVYYCAADLYSAVYFSRWSDYWGQGTQVTVSS	high polyreactivity
QVQLEESGGGLVQAGGSLRLSCAASGRTFYIYAMGWYRQAAGKERELVAAITWSGGTTYYADSVKGRFTISRDNAKNTVYLQMNSLKPEDTAVYDCNAGATYVKRRRGRKYDYWGQGTQVTVSS	low polyreactivity
QVQLVESGGGLVQAGGSLRLSCAASGRILYQYAMGWYRQAPGKERELVASISGRSGRTRYADSVKGRFTISRDNAKNTVYLQMNSLKPEDTAVYYCNAGSSVLKYDYWGQGTQVTVSS	low polyreactivity
